From patent US20060193821, “Aptamers to the human IL-12 cytokine family and their use as autoimmune disease therapeutics” (published 2006)

Columns and labels:
[1] = target: IL-12 (human, p35/p40 heterodimer) (Homo sapiens, UniProt P29459;P29460 SEQ:57-253,SEQ:23-328); assay: filter; no significant binding
[2] = target: T1, IL-23 (human, p19/p40 heterodimer) (Homo sapiens, UniProt Q9NPF7;P29460 SEQ:20-189,SEQ:23-328); assay: cell_activity; TransAM STAT3; settings: tags: R&D Systems, carrier free
T1 sequence (Q9NPF7 20-189, chain 1 of 2): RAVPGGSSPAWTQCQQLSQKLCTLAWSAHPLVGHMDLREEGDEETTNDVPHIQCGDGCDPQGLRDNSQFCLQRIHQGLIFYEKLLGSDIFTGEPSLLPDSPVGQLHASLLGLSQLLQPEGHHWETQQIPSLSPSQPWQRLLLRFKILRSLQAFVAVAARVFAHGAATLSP
T1 sequence (P29460 23-328, chain 2 of 2): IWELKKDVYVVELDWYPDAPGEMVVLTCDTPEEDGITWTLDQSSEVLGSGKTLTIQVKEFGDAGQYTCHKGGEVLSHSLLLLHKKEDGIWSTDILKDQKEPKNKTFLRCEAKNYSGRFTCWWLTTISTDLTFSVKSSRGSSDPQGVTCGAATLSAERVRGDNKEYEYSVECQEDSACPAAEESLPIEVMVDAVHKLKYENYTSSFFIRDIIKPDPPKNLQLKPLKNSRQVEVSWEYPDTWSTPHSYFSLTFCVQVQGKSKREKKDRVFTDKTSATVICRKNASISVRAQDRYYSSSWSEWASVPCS
Procedure: (§1) In summary, the cell-based assay was conducted by isolating the peripheral blood mononuclear cells (PBMCs) from whole blood using a Histopaque gradient (Sigma, St. Louis, Mo.). The PBMCs were cultured for 3 to 5 days at 37° C./5% CO₂ in Peripheral Blood Medium (Sigma) which contains PHA, supplemented with IL-2 (100 units/mL) (R&D Systems, Minneapolis, Minn.), to generate PHA Blasts. To test IL-23 aptamers, the PHA Blasts were washed twice with 1×PBS, then serum starved for four hours in RPMI, 0.20% FBS. After serum starvation, approximately 2 million cells were aliquotted into appropriately labeled eppendorf tubes. hIL-23 at a final constant concentration of 3 ng/mL (R&D Systems, Minneapolis, Minn.) was combined with a dilution series of various IL-23 aptamers as described in Example 1, and the cytokine/aptamer mixture was added to the aliquotted cells in a final volume of 100 μl and incubated at 37° C. for 10-12 minutes. The incubation reaction was stopped by adding 1 mL of ice-cold PBS with 1.5 mM Na₃VO₄. Cell lysates were made using the lysis buffer provided by the TransAM™ STAT 3 assay following the manufacturer's instructions. FIG. 20 depicts a flow summary of the protocol used for the cell based assay.
(§2) Full length clones from the rRfY selection described in Example 1A, and select minimized rRfY clones that were described in Example 2A. 1, were tested using the TransAM™ STAT3 activation assay. Table 34 summarizes the cell based assay data for IL-23 full length aptamers generated from the rRfY selections described in Example 1A. 1, each compared to the activity of their respective parent (full length) clone.

[3] = target: T1, IL-23 (human, p19/p40 heterodimer); assay: filter; SHMCK, tRNA; settings: tags: R&D Systems, carrier free
Procedure: Monitoring Progress of rRfY Selection. Dot blot binding assays were performed throughout the selections to monitor the protein binding affinity of the pools. Trace ³²P-labeled RNA was combined with a dilution series of h-IL-23 and incubated at room temperature for 30 minutes in 1×SHMCK (20 mM Hepes, 120 mM NaCl, 5 mM KCl, 1 mM MgCl₂, 1 mM CaCl₂, pH 7.4) plus 0.1 mg/mL tRNA for a final volume of 20 μL. The binding reactions were analyzed by nitrocellulose filtration using a Minifold I dot-blot, 96-well vacuum filtration manifold (Schleicher & Schuell, Keene, N.H.). A three-layer filtration medium was used, consisting (from top to bottom) of Protran nitrocellulose (Schleicher & Schuell), Hybond-P nylon (Amersham Biosciences) and GB002 gel blot paper (Schleicher & Schuell). RNA that is bound to protein is captured on the nitrocellulose filter, whereas the non-protein bound RNA is captured on the nylon filter. The gel blot paper was included simply as a supporting medium for the other filters. Following filtration, the filter layers were separated, dried and exposed on a phosphor screen (Amersham Biosciences, Piscataway, N.J.) and quantified using a Storm 860 Phosphorimager® blot imaging system (Amersham Biosciences).
When a significant positive ratio of binding of RNA in the presence of h-IL-23 versus in the absence of h-IL-23 was seen, the pools were cloned using a TOPO TA cloning kit (Invitrogen, Carlsbad, Calif.) according to the manufacturer's instructions. For the h-IL-23 and X-IL-23 selections, the Round 8 pool templates were cloned, and 32 individual clones from each selections were assayed in a 1-point dot blot screen (+/−75 nM h-IL-23, as well as a separate screen at +/−75 nM h-IL-12). For the PN-IL-23 selection, the Round 10 pool was cloned and sequenced, and 8 unique clones were assayed for protein binding in a 1-point dot blot screen (+/−200 nM h-IL-23 and a separate screen at +/−200 nM h-IL-12). Subsequently, the Round 10 PN-IL-23 pool was re-cloned for further sequences, as well as the R12 PN-IL-23 pool, and the clones were assayed for protein binding in a 1 point do blot screen (+/−100 nM h-IL-23 or +/−200 nM h-IL-12).

[4] = target: T1, IL-23 (human, p19/p40 heterodimer); assay: cell_activity; TransAM STAT3, PHA blasts; settings: tags: R&D Systems
Procedure: as §1, §2

[5] = target: T1, IL-23 (human, p19/p40 heterodimer); assay: filter; -tRNA; settings: tags: R&D Systems, carrier free
Procedure: These molecules were gel purified and assayed for IL-23 binding using the dot blot assay as described above and compared to each other and to the parent molecule, ARC979. An 8 point IL-23 titration (0 nM to 300 nM, 3 fold serial dilutions) was used in the binding assay.

IL-12 (human, p35/p40 heterodimer), sequence (P29459 23-219, chain 1 of 2): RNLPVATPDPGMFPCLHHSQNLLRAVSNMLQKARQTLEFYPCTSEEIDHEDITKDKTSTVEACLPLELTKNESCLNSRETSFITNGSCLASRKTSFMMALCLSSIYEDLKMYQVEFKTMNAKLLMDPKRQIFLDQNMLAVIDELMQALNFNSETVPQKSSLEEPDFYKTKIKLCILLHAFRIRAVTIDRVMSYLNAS
IL-12 (human, p35/p40 heterodimer), sequence (P29460 23-328, chain 2 of 2): as the sequence (P29460 23-328, chain 2 of 2) above

Binder | IC50 [4] [µM] | Kd [5] [µM] | also measured
AMX91-C12 (ssRNA, 2'-F C,U) RNA: GGGAAAAGCGAAUCAUACACAAGACGAUAGUAUGACCUUUUGAAAGGCUUCCCGAGCGGUGUUCGCUCCGCCAGAGACCAACCGAGAA |  |  | binding result [1]: no binding; IC50 [2]: 0.05 µM; Kd [3]: 0.0307 µM
AMX91-G9 (ssRNA, 2'-F C,U) RNA: GGGAAAAGCGAAUCAUACACAAGAAUUGUGCUUACAACUUUCGUUGUACCGACGUGUCAGUUAUGCUCCGCCAGAGACCAACCGAGAA |  |  | binding result [1]: no binding; IC50 [2]: 0.05 µM; Kd [3]: 0.033 µM
AMX91-E3 (ssRNA, 2'-F C and U, 2'-OH A and G) RNA: GGGAAAAGCGAAUCAUACACAAGAUUACUCCGUUAGUGUCAGUUGACGGAGGGAGCGUACUAUUGCUCCGCCAGAGACCAACCGAGAA | > 5 |  | 
AMX86-D5 (ssRNA, 2'-F C and U, 2'-OH A and G) RNA: GGGAAAAGCGAAUCAUACACAAGAGAGGUAUGUGGUUUUGCGGAGCAACUCGUGUCAGCGGUCAGCUCCGCCAGAGACCAACCGAGAA | > 5 |  | 
AMX84-A11 (ssRNA, 2'-F C and U, 2'-OH A and G) RNA: GGGAAAAGCGAAUCAUACACAAGAGAGGUAUGUGGUUUUGCGGAGCAACUCGUGUCAGCGGUCAGCUCCGCCAGAGACCAACCGAGAA | > 5 |  | 
AMX84-E12 (ssRNA, 2'-F C and U, 2'-OH A and G) RNA: GGGAAAAGCGAAUCAUACACAAGAAGUUUUUGUGCUCUGAGUACUCAGCGUCCGUAAGGGAUAUGCUCCGCCAGAGACCAACCGAGAA | > 1 |  | 
AMX86-D6 (ssRNA, 2'-F C and U, 2'-OH A and G) RNA: GGGAAAAGCGAAUCAUACACAAGAUUAGGCGUCGUGACAAUAACUGGUCCACGAGCAUGUCAGUGCUCCGCCAGAGACCAACCGAGAA | > 5 |  | 
AMX91-H8 (ssRNA, 2'-F C and U, 2'-OH A and G) RNA: GGGAAAAGCGAAUCAUACACAAGAACGCAUAGUCGGAUUUACCGAUCAUUCUGUGCCUUCGUGACGCUCCGCCAGAGACCAACCGAGAA | 3 |  | 
AMX86-B10 (ssRNA, 2'-F C and U, 2'-OH A and G) RNA: GGGAAAAGCGAAUCAUACACAAGAGAACGAGUAUAUUUGCGCUGGCGGAGAAGUCUCUCGAAGGGAGCUCCGCCAGAGACCAACCGAGAA | 0.8 |  | 
ACAGGCAAGUAAUUGGGGAGUGCGGGCGGGGUGU (mixed, deoxy A,G; 2'-OMe C,U; PS 28-29 [PS linkage 28-29; 2'-OMe C,U at 2,6,10,13,14,21,23,27,32,34; all A,G 2'-deoxy]) [ARC1167] |  | 0.107 | 
ACAGGCAAGUAAUUGGGGAGUGCGGGCGGGGUGU (mixed, deoxy A,G; 2'-OMe C,U; PS 10-11 [PS between 10-11; 2'-OMe C,U at 2,6,10,13,14,21,23,27,32,34; deoxy A,G at all other positions]) [ARC1155] |  | 0.168 | 
ACAGGCAAGUAAUUGGGGAGUGCGGGCGGGGUGU (mixed, deoxy A,G; 2'-OMe C,U; PS 11-12 [PS between 11-12; 2'-OMe C,U at 2,6,10,13,14,21,23,27,32,34; deoxy A,G at all other positions]) [ARC1156] |  | 0.369 | 
ACAGGCAAGUAAUUGGGGAGUGCGGGCGGGGUGU (mixed, deoxy A,G; 2'-OMe C,U; PS 27-28 [PS between 27-28; 2'-OMe C,U at 2,6,10,13,14,21,23,27,32,34; deoxy A,G at all other positions]) [ARC1166] |  | 0.132 | 
ACAGGCAAGUAAUUGGGGAGUGCGGGCGGGGUGU (mixed, deoxy A,G; 2'-OMe C,U; PS 26-27 [PS between 26-27; 2'-OMe C,U at 2,6,10,13,14,21,23,27,32,34; deoxy A,G at all other positions]) [ARC1165] |  | 0.055 | 
ACAGGCAAGUAAUUGGGGAGUGCGGGCGGGGUGU (mixed, deoxy A,G; 2'-OMe C,U; PS 8-9) [ARC1153] |  | 0.174 | 
ACAGGCAAGUAAUUGGGGAGUGCGGGCGGGGUGU (mixed, deoxy A,G; 2'-OMe C,U; PS 6-7) [ARC1151] |  | 0.142 | 
ACAGGCAAGUAAUUGGGGAGUGCGGGCGGGGUGU (mixed, deoxy A,G; 2'-OMe C,U; PS 7-8) [ARC1152] |  | 0.232 | 
ACAGGCAAGUAAUUGGGGAGUGCGGGCGGGGUGU (mixed, deoxy A,G; 2'-OMe C,U; PS 13-14 [PS between 13-14; 2'-OMe C,U at 2,6,10,13,14,21,23,27,32,34; deoxy A,G at all other positions]) [ARC1158] |  | 0.192 | 
AMX91-D9 (ssRNA, 2'-F C,U) RNA: GGGAAAAGCGAAUCAUACACAAGAGUGUAUUACCCCCAACCCAGGGGGACCAUUCGCGUAACAAGCUCCGCCAGAGACCAACCGAGAA |  |  | binding result [1]: no binding; IC50 [2]: 0.15 µM; Kd [3]: 0.0446 µM
AMX91-G1 (ssRNA, 2'-F C and U, 2'-OH A and G) RNA: GGGAAAAGCGAAUCAUACACAAGAUAUGUGCCUGGGAUGGACGACAUCCCCUGUCUAAGGAUAUGCUCCGCCAGAGACCAACCGAGAA | 2 |  | 
AMX91-G11 (ssRNA, 2'-F C and U, 2'-OH A and G) RNA: GGGAAAAGCGAAUCAUACACAAGACUUAACAGUGCGGGGCGCAGUGUAUAGAUCCGCAAUGUGUGCUCCGCCAGAGACCAACCGAGAA | 3 |  | 
AMX91-B5 (ssRNA, 2'-F C and U, 2'-OH A and G) RNA: GGGAAAAGCGAAUCAUACACAAGACAGUGUAUGAGGAAGAUUACUUCCAUUCCUGAGCGGUUUUCGCUCCGCCAGAGACCAACCGAGAA | 1 |  | 
AMX84-C11 (ssRNA, 2'-F C and U, 2'-OH A and G) RNA: GGGAAAAGCGAAUCAUACACAAGAAUGGUCGGAAUCUCUGGCGCCACGCUGAGUAUAGACGGAAGCUCCGCCAGAGACCAACCGAGAA | 0.8 |  | 
AMX91-H7 (ssRNA, 2'-F C,U) RNA: GGGAAAAGCGAAUCAUACACAAGACUUAUCGCCUCAAGGGGGGUAAUAAACCCAGCGUGUGCAUGCUCCGCCAGAGACCAACCGAGAA |  |  | binding result [1]: no binding; IC50 [2]: 0.05 µM; Kd [3]: 0.071 µM
AMX91-A6 (ssRNA, 2'-F C and U, 2'-OH A and G) RNA: GGGAAAAGCGAAUCAUACACAAGAUUGGCAAUGUGACCUUCAACCCUUUUCCCGAUGAACAGUGGCUCCGCCAGAGACCAACCGAGAA | 3 |  | 
AMX86-C5 (ssRNA, 2'-F C and U, 2'-OH A and G) RNA: GGGAAAAGCGAAUCAUACACAAGAGUUUUAUGUGGGUCCCGAUGAUUAACUUUAUUGGCGCAUUGCUCCGCCAGAGACCAACCGAGAA | 3 |  | 
AMX91-F11 (ssRNA, 2'-F C and U, 2'-OH A and G) RNA: GGGAAAAGCGAAUCAUACACAAGACGCGUCAGGUCCACGCUGAAAUUUAUUUUCGGCAGUGUAAGCUCCGCCAGAGACCAACCGAGAA | 5 |  | 
AMX86-G10 (ssRNA, 2'-F C and U, 2'-OH A and G) RNA: GGGAAAAGCGAAUCAUACACAAGAGUCAUGGCUUACAAUUGAAACAAGAGCUCGCGUGACACAUGCUCCGCCAGAGACCAACCGAGAA | ~2 |  | 
AMX91-B8 (ssRNA, 2'-F C and U, 2'-OH A and G) RNA: GGGAAAAGCGAAUCAUACACAAGAAUCCUGGCUUCGCAUAGUGUAUGGGUAGUACGACAGCGCGUGCUCCGCCAGAGACCAACCGAGAA | 0.45 |  | 
